The results in this text go back to US20120034215A1 (Daiichi Sankyo, published 2012).

The target of test [1] is T1, recombinant MST1R-Fc fusion protein (containing 25-571 amino acid sequence of human MST1R, R&D) (human, UniProt Q04912 25-571).
T1 construct: Bought from R&D systems; also called immobilized recombinant human MST1R; not shown: Fc part of the bought fusion protein (R&D systems)
T1 chain: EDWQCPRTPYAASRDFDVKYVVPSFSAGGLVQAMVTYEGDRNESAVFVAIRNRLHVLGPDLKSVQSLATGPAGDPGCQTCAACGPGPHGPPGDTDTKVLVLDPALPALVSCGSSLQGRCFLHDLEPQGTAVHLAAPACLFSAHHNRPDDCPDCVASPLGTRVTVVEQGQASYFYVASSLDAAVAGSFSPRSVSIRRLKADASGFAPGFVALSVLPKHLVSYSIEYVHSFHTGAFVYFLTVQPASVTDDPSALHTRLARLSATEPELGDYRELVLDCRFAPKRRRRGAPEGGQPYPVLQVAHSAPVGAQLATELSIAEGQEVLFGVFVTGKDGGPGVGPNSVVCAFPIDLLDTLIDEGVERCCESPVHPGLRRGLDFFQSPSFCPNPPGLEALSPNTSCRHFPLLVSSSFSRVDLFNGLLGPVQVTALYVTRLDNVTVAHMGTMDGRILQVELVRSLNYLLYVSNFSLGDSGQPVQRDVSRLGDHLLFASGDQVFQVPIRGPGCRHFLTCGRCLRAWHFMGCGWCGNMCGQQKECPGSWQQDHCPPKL
In words: SPR (Biacore 3000), Fab over directly immobilized MST1R-Fc. The procedure:
With reference to Table 1, the affinity of MOR X antibodies was measured by surface plasmon resonance (Biacore) on immobilized recombinant human MST1R. The Biacore studies were performed on directly immobilized antigen.
The kinetic constants kₒₙ and koff were determined with serial dilutions of the respective Fab binding to covalently immobilized MST1R-Fc fusion protein (R&D systems) using the BIAcore 3000 instrument (Biacore). For covalent antigen immobilization standard EDC-NHS amine coupling chemistry was used. For direct coupling of MST1R-Fc fusion protein CM5 sensor chips (Biacore) were coated with ˜600-700 RU in 10 mM acetate buffer, pH 4.5. For the reference flow cell a respective amount of HSA (human serum albumin) was used. Kinetic measurements were done in PBS (136 mM NaCl, 2.7 mM KCl, 10 mM Na₂HPO₄, 1.76 mM KH₂PO₄ pH 7.4) at a flow rate of 20 μl/min using Fab concentration range from 15.6-500 nM. Injection time for each concentration was 1 min, followed by 3 min dissociation phase. For regeneration […] 10 mM HCl was used. All sensograms were globally fitted using BIA evaluation software 3.2 (Biacore).

Test [2] addresses T1, recombinant MST1R-Fc fusion protein …. The experiment in a line: Solution Equilibrium Titration (SET, ECL based), Fab.
The target is the same in test [3]. In words: Solution Equilibrium Titration (SET, ECL based), Fab; SET (Fab), in solution; not Biacore on immobilized antigen.
Test [4] addresses T2, cynomolgus monkey MST1R with N-terminal Flag tag, expressed on HEK293T cells (cynomolgus monkey, UniProt Q04912 27-1400 (human entry)).
T2 construct: ORF cloned excluding the signal peptide region; also called cynomolgus MST1R; not shown: N-terminal Flag tag from vector pFLAG-myc-CMV-19 (Sigma)
T2 chain: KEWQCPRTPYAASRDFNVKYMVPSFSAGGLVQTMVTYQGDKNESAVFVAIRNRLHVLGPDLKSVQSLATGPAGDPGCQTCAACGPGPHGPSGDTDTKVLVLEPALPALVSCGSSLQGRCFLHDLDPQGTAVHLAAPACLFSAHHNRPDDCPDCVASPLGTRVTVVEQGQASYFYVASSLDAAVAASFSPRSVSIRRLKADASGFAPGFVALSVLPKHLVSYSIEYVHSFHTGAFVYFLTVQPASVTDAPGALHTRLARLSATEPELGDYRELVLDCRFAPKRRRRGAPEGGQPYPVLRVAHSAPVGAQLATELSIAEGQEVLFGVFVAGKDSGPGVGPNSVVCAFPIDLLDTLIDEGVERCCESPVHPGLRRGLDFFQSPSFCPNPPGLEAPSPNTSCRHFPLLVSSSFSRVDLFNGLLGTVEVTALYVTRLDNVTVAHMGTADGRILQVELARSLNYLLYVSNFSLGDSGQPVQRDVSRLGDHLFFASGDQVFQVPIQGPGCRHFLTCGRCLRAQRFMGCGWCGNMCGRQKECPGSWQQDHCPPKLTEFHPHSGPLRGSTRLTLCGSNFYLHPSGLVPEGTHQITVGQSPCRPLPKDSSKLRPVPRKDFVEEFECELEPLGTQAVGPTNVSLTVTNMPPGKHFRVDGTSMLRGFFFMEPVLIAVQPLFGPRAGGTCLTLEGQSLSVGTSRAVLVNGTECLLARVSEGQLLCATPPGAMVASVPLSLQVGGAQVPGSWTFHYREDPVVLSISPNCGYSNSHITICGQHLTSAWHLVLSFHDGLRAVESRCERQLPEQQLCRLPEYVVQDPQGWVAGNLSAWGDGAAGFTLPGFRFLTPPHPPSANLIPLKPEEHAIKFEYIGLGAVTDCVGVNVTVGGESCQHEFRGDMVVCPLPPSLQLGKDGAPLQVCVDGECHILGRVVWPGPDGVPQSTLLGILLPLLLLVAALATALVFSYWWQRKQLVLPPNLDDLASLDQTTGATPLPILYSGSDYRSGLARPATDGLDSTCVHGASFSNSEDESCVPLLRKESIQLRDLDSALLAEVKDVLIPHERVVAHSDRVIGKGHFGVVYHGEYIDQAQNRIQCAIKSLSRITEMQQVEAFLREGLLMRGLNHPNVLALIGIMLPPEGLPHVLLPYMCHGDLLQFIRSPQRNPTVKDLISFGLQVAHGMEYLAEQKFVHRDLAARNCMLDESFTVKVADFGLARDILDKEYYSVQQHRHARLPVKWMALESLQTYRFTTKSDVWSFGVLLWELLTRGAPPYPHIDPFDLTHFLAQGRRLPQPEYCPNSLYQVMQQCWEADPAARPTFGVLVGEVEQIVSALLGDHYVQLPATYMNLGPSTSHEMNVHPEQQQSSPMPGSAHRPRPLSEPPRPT
In words: flow cytometry on transfected HEK293T cells, 2 ug/ml IgG1. The procedure:
Cells (5×10⁵ cells/well) were incubated with Fab or IgG antibodies at the indicated concentrations in 50 μl FACS buffer (PBS, 5% FCS) for 60 min at 4° C. in round bottom 96-well culture plates (Corning). Cells were washed twice and then incubated with Fluorescein Isothiocyanate (FITC) conjugated detection antibody for 30 min at 4° C. Cells were washed again, resuspended in 0.3 ml FACS buffer and then analyzed by flow cytometry in a Cytomics FC500 (Beckman Coulter, Inc.). Data were analysed via FlowJo software (Tomy digital biology Co., Ltd.). Polyclonal goat anti-hMSP R IgG (R&D systems) or anti-FLAG M2 antibody (Sigma) was used as a positive control and MOR03207 (anti-lysozyme) antibody was used as a negative control.
FACS-analysis of MST1R ortholog-expressing cells: Human MST1R (cDNA nucleotide sequence is shown as GenBank Accession No: NM_{—}002447.2), cynomolgus monkey MST1R and mouse MST1R (cDNA nucleotide sequence is shown as GeneBank Accession No: NM_{—}009074.1) expression vector containing N-terminal Flag tag (pFLAG-myc-CMV-19, Sigma) were constructed. cDNA encoding cynomolgus monkey MST1R was amplified by PCR using cynomolgus monkey stomach cDNA as a template with forward and reverse primers having nucleotide sequences of SEQ ID NO: 34 and 35, respectively. By sequencing analysis of PCR product, the cynomolgus MST1R ORF nucleotide sequence was identified as shown in SEQ ID NO: 36. The corresponding amino acid sequence was shown in SEQ ID NO: 37. Then human, cynomolgus monkey and mouse MST1R ORF cDNA, excluding signal peptide regions, were amplified using respective forward and reverse primers having nucleotide sequences of SEQ ID NO: 38 and 39 (human), 40 and 41 (cynomolgus monkey), and 42 and 43 (mouse) with appropriate cloning sites and then cloned into pFLAG-myc-CMV-19. An amplified human MST1R fragment encodes amino acids corresponding to GenBank Accession No: NP_{—}002438.2 (SEQ ID NO: 45). A Mouse MST1R fragment encodes amino acids corresponding to GenBank Accession No: NP_{—}033100.1 (SEQ ID NO: 47) except for those amino acid differences at positions: 688 (Leu to Pro), 713 (Ile to Val), 714 (Ala to Gly) and 719 (Ala to Val). These expression vectors were transfected into HEK293T cells. For FACS-analysis, cells were incubated with 2 μg/ml primary antibodies followed by incubation with FITC-labeled secondary antibody as described above.
On the technique in general: In flow cytometry, cells or beads pass a laser one at a time.

Test [5] addresses MST1R on cells (293alpha cells transfected with pcDNA-DEST40 MST1R; endogenous on PC3, T-47D and BxPC-3 cells) (human, UniProt Q04912 25-1400). In words: cell-based or functional assay.

B1: MOR07923 Fab (Fab, V domains shown)
VH: QVQLVESGGGLVQPGGSLRLSCAASGFTFNSYSMSWVRQAPGKGLEWVSYISSRSSTTYYADSVKGRFTISRDNSKNTLYLQMNSLRAEDTAVYYCARGYFHGMDYWGQGTLVTVSS
VL: DIVLTQSPATLSLSPGERATLSCRASQSVSFDYLGWYQQKPGQAPRLLIYGASNRATGVPARFSGSGSGTDFTLTISSLEPEDFATYYCFQYLIVPFTFGQGTKVEIKR
notes: carries two C-terminal tags (FLAG and Strep-tag II); also called Fab MOR07923
With B1, the values for the Kd in test [1] and in test [2] were 0.07 nM and 0.02 nM, respectively.

B2: MOR07925 Fab (Fab, V domains shown)
VH: QVQLVESGGGLVQPGGSLRLSCAASGFTFNSYSMSWVRQAPGKGLEWVSYISSRSSTTYYADSVKGRFTISRDNSKNTLYLQMNSLRAEDTAVYYCARGYFHGMDYWGQGTLVTVSS
VL: DIVLTQSPATLSLSPGERATLSCRASQSVSFDYLGWYQQKPGQAPRLLIYGASNRATGVPARFSGSGSGTDFTLTISSLEPEDFATYYCLQYFNPPHTFGQGTKVEIKR
notes: carries two C-terminal tags (FLAG and Strep-tag II); also called Fab MOR07925
For the molecule B2, the Kd in test [1] worked out at 0.02 nM; in test [2] it was 0.01 nM.

B3: MOR07924 Fab (Fab, V domains shown)
VH: QVQLVESGGGLVQPGGSLRLSCAASGFTFNSYSMSWVRQAPGKGLEWVSYISSRSSTTYYADSVKGRFTISRDNSKNTLYLQMNSLRAEDTAVYYCARGYFHGMDYWGQGTLVTVSS
VL: DIVLTQSPATLSLSPGERATLSCRASQSVSFDYLGWYQQKPGQAPRLLIYGASNRATGVPARFSGSGSGTDFTLTISSLEPEDFATYYCQQYNINPFTFGQGTKVEIKR
notes: carries two C-terminal tags (FLAG and Strep-tag II); also called Fab MOR07924
Take B3: the Kd in test [1] amounted to 0.2 nM; in test [2] it was 0.03 nM.

B4: MOR07926 Fab (Fab, V domains shown)
VH: QVQLVESGGGLVQPGGSLRLSCAASGFTFNSYSMSWVRQAPGKGLEWVSYISSRSSTTYYADSVKGRFTISRDNSKNTLYLQMNSLRAEDTAVYYCARGYFHGMDYWGQGTLVTVSS
VL: DIVLTQSPATLSLSPGERATLSCRASQSVSFDYLGWYQQKPGQAPRLLIYGASNRATGVPARFSGSGSGTDFTLTISSLEPEDFATYYCFQALIMPFTFGQGTKVEIKR
notes: carries two C-terminal tags (FLAG and Strep-tag II); also called Fab MOR07926
For the molecule B4, the values for the Kd in test [1] and in test [2] were 0.13 nM and 0.04 nM, respectively.

B5: MOR07692 Fab (Fab, V domains shown)
VH: QVQLVESGGGLVQPGGSLRLSCAASGFTFNSYSMSWVRQAPGKGLEWVSYISSRSSTTYYADSVKGRFTISRDNSKNTLYLQMNSLRAEDTAVYYCARGYFHGMDYWGQGTLVTVSS
VL: DIVLTQSPATLSLSPGERATLSCRASQSVSFDYLGWYQQKPGQAPRLLIYGASNRATGVPARFSGSGSGTDFTLTISSLEPEDFATYYCQQYYNMPYTFGQGTKVEIKR
notes: carries two C-terminal tags (FLAG and Strep-tag II); also called Fab MOR07692
Consider B5, for which the values for the Kd in test [1] and in test [3] were 0.8 nM and 0.25 nM, respectively.

B6: MOR07919 (human IgG1) (antibody, V domains shown)
VH: QVQLVQSGAEVKKPGESLKISCKGSGYSFTNYWISWVRQMPGKGLEWMGFIYPDDSYTRYSPSFQGQVTISADKSISTAYLQWSSLKASDTAMYYCARFSYRHYLDMDDHWGQGTLVTVSS
VL: DIELTQPPSVSVAPGQTARISCSGDSLGSKYVHWYQQKPGQAPVLVIYRDNKRPSGIPERFSGSNSGNTATLTISGTQAEDEADYYCQSYDATEFTYVFGGGTKLTVLG
Take B6: the binding result in test [4] was “binds”. For the same molecule, the “Reporter assay IC50 (ng/ml); Elk1 luciferase reporter gene assay in the presence of 100 ng/ml MSP” value in test [5] is 87.6 ng/mL.

B7: MOR07919 Fab (Fab, V domains shown)
VH: QVQLVQSGAEVKKPGESLKISCKGSGYSFTNYWISWVRQMPGKGLEWMGFIYPDDSYTRYSPSFQGQVTISADKSISTAYLQWSSLKASDTAMYYCARFSYRHYLDMDDHWGQGTLVTVSS
VL: DIELTQPPSVSVAPGQTARISCSGDSLGSKYVHWYQQKPGQAPVLVIYRDNKRPSGIPERFSGSNSGNTATLTISGTQAEDEADYYCQSYDATEFTYVFGGGTKLTVLG
notes: carries two C-terminal tags (FLAG and Strep-tag II); also called Fab MOR07919
B7: the Kd in test [1] worked out at 0.98 nM; in test [2], 0.27 nM.

The term Kd denotes the concentration at which binding is half-saturated.
